{"source": "paper PMC10156792", "about": "“The structure and evolutionary diversity of the fungal E3-binding protein” (Communications Biology, 2023)", "key": {"[1]": {"molecular_target": "N.crassa E3-binding protein in the native pyruvate dehydrogenase complex (N.crassa)", "test": "cryo-EM structure; native PDC data EMPIAR-10489 reprocessed; symmetry-expanded consensus alignments only, C3 symmetry, 4.1 Å"}, "[2]": {"molecular_target": "the molecule itself", "test": "cryo-EM structure; recombinant co-expressed CTD:CBD sub-complex (tE2/PX261); symmetry expansion, signal subtraction and classification of E2 trimers, C3 symmetry, 3.2 Å"}}, "data": [{"molecule": "N.crassa E3-binding protein in the native pyruvate dehydrogenase complex (natural protein)", "values": [{"measurement": "stoichiometry N", "setting": "[1]", "value": 3}]}, {"molecule": "N.crassa E3-binding protein core-binding domain (residues 261-426), his-tagged (domain or fragment, UniProt Q7RWS2 261-426, looked up, residues 265-346 and 390-425 were built; Trimer inside the E2 core by the cryo-EM reconstruction; also called E3BP CBD; CBD; source: E. coli Rosetta2 (DE3), co-expressed with E2 225-458 from the petDuet vector, purified (Ni-NTA, SEC)) PAPPPVAVVTAPISLSAAIDVQNKLHKTIGVFLPLSTFITRATEIANQKLPLPANYQPTADELFNQVLGLDKVTRKESRGSYTPTFGSFVAPQRAARKADIIDILAAPSTRVAASAQSKSAAPGLTTSGPNVFSLQVPKSEEKRAQAFLQKMKLVLEQEPDKLVRA", "values": [{"measurement": "stoichiometry N", "setting": "[2]", "value": 3}]}, {"molecule": "N.crassa E2 C-terminal catalytic transacetylase domain (residues 225-458) (domain or fragment, UniProt P20285 225-458, looked up, Forms trimers that assemble into the icosahedral PDC core; also called E2 CTD; CTD; source: E. coli Rosetta2 (DE3), co-expressed with his-tagged E3BP 261-426 from the petDuet vector, purified (Ni-NTA, SEC)) AAYTDVPISGMRKTIAARLKESVTENPHFFVSTNLSVSKLLKLRQALNSSADGRYKLSVNDFLIKAMGIASKRVPTVNSSWRDGVIRQFETVDVSVAVATPNGLITPIVKGVEGKGLESISAAVKELAKKARDGKLKPEEYQGGSISISNMGMNPAVQSFTAIINPPQAAILAVGAPQKVAVPVENEDGTTGVSWDEQIIVTASFDHKVVDGAVGAEWIRELKKVIENPLELLL", "values": [{"measurement": "binding result", "setting": "[2]", "value": "binds"}]}]}
